This data set can be described thus: protein stability index of a GFP-peptide fusion (GPS, HEK-293T) (PSI 1-6); higher = more stable.
The mark [1] stands for this setting: treatment: DMSO, c terminus: a fixed tail appended.
Where [2] appears, read: treatment: MLN4924 1 uM, 8 h, c terminus: a fixed tail appended.

± gives the standard deviation.
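Further: 24-mer peptide tiles fused after GFP, lentivirally expressed, FACS-sorted into six equal bins by GFP/DsRed ratio, decoded by Illumina sequencing, PSI is the read-weighted mean bin number.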

For the sequence RWWEDLERDFPCPVCRKTSRYRSL [TRIM39], the protein stability index amounted to 2.36 ± 0.21 under setting [1] and 2.77 ± 0.56 under setting [2].
For RYALQLQQIQGLISSIEAQLSELR [KRT13], in that order: 3.17 ± 0.14 and 3.38 ± 0.35.
Taken in the same sequence, the figures for RYDPEPKSKWDEEWDKNKSAFPFS [CLINT1] were 3.84 ± 0.36 and 3.89 ± 0.21.
For RYHLQQNVHFKEETVKLFICELVM [STK32A], in that order: 2.35 ± 0.41 and 2.46 ± 0.26.
In turn, RYVEFNLLYDRGTKFGLFTPGSRI [CPOX] came in with a protein stability index under setting [1] of 2.52 ± 0.75 and a protein stability index under setting [2] of 2.26 ± 0.27.
For SAILQFPSTLGRCKAFSTCVSHLI [OR10K2], in that order: 2.5 ± 0.55 and 2.59 ± 0.3.
Take SCLLPSSEAKLYGRCELARVLHDF [SPACA3]: the protein stability index was 2.08 ± 0.57 under setting [1] and 2.1 ± 0.26 under setting [2].
Taken in the same sequence, the figures for SDCEEEEEEEEEEGSGHSTGEDSA [WEE1] were 5.57 ± 0.2 and 5.49 ± 0.33.
For SDFQIEPGFYATYESTLFEDQVPA [MIA2], in that order: 3.92 ± 0.27 and 3.7 ± 0.31.
Taken in the same sequence, the figures for SDSGKDLPEPSKRGPPHGWPKLCP [MYCL] were 4.27 ± 0.1 and 4.63 ± 0.078.
Turning to SEGDLKNAIRVHHALATRASDYSK [PSD2], the protein stability index came to 4.04 ± 0.11 under setting [1] and 4.22 ± 0.18 under setting [2].
On to SEGSSSSSSSSSSSSSSASSSASS [NFE2L1], for which the protein stability index was 5.57 ± 0.16 under setting [1] and 5.53 ± 0.2 under setting [2].
For SEKASKKYVSKELAKEIRVKAEPF [EIF5], in that order: 4.29 ± 0.28 and 4.36 ± 0.18.
With SELSESAFGYFITACAVIILTIIC [SLC29A1], the protein stability index under setting [1] came out at 2.03 ± 0.21 and the protein stability index under setting [2] stood at 2.12 ± 0.39.
In the case of SFGVDEEERVRVLQGVRLSENVVN [CHCHD6], the protein stability index stood at 4.39 ± 0.2 under setting [1] and 4.59 ± 0.15 under setting [2].
Regarding SFIITLGCNSVLIQFATPNDFCSF [CARM1], the protein stability index by setting is: under setting [1], 3.3 ± 0.25; under setting [2], 2.75 ± 0.45.
For SGESNSAVSTEDLKECLKKQLEFC [LARP4], in that order: 4.43 ± 0.49 and 4.64 ± 0.19.
SGGRGPQGDKAIREQGPREQEPEL [PBXIP1]: the protein stability index reads like this: under setting [1], 5.44 ± 0.19; under setting [2], 5.5 ± 0.25.
Taken in the same sequence, the figures for SGNGDFGDWSAFNQAPSGPVASSG [CLINT1] were 4.37 ± 0.13 and 4.38 ± 0.11.
For SGRARQQDEEMLELPAPAEVAAKN [MLH1], in that order: 5.52 ± 0.29 and 5.2 ± 0.17.
Taken in the same sequence, the figures for SGRFIVIIPRTVIDGLDLLKKEHP [SMG5] were 2.9 ± 0.55 and 3.31 ± 0.78.
In the case of SGRVKRERDREREPEAASSRGSPV [USP39], the protein stability index runs as follows: under setting [1], 5.12 ± 0.18; under setting [2], 5.33 ± 0.11.
Take SGSRVRVGFRLCNSTGGDCFYRGY [SCNN1D]: the protein stability index by setting is: under setting [1], 2.18 ± 0.21; under setting [2], 2.38 ± 0.49.
As for SHQCAHCEKTFNRKDHLKNHLQTH [PLAGL1], the protein stability index was found to be 5.03 ± 0.15 under setting [1] and 5.04 ± 0.14 under setting [2].
Take SHQYDRIYCGAGVQKDHENYMKIL [PCMTD1]: the protein stability index under setting [1] worked out at 2.38 ± 0.16 and the protein stability index under setting [2] worked out at 2.39 ± 0.2.
Turning to SHWDLNHTHPSACQGQRLFEKLLQ [PLD5], the protein stability index is, setting by setting: under setting [1], 2.56 ± 0.43; under setting [2], 2.54 ± 0.3.
As for SIGRRRTELRRSGSSRSPGSKARA [PLEKHN1], the protein stability index worked out at 4.88 ± 0.47 under setting [1] and 4.95 ± 0.27 under setting [2].
Taken in the same sequence, the figures for SIPLMGFEFEVRVCDSCHEAITDE [WDFY2] were 3.38 ± 0.17 and 3.54 ± 0.32.
For SITFTTGLEAPRDLEAKEVTPRTA [TNXB], in that order: 5.22 ± 0.37 and 5.16 ± 0.3.
SIYIHVYFTKSGFHPDPRQKALYR [CLPTM1] gave a protein stability index under setting [1] of 2.86 ± 0.6 and a protein stability index under setting [2] of 2.76 ± 0.22.
For SKNDNGKPDSVGLPPCAVRNLQDL [PCMTD1], in that order: 4.85 ± 0.44 and 4.58 ± 0.35.
For SKPCDLHCTTVDGQRQLMVPARDG [ADAMTSL2], in that order: 4.33 ± 0.11 and 4.37 ± 0.36.
In the case of SKSCMRAVLEYLYTGMFTSSPDLD [RHOBTB2], the protein stability index came to 2.28 ± 0.039 under setting [1] and 2.05 ± 0.49 under setting [2].
For the sequence SLALVQNGDVSAPSAILRTPESTK [ANKRD40], the protein stability index was determined as 4.07 ± 0.36 under setting [1] and 4.06 ± 0.17 under setting [2].
Regarding SLSFEDFLDLLSVFSDTATPDIKS [CIB1], the protein stability index came to 2.26 ± 0.35 under setting [1] and 2.29 ± 0.33 under setting [2].
As for SLVHMDIKPSNIFISRTSIPNAAS [WEE1], the protein stability index runs as follows: under setting [1], 2.43 ± 0.24; under setting [2], 2.48 ± 0.21.
For SLYGENSNSLSSAEPLKEDKPVTG [ATF6], the protein stability index is, setting by setting: under setting [1], 4.54 ± 0.1; under setting [2], 4.58 ± 0.22.
SMNFSMMSTNTVGLGLPMSRSQNT [CLINT1]: the protein stability index was determined as 3.19 ± 0.36 under setting [1] and 3.44 ± 0.38 under setting [2].
Take SMPCSTDKENGENVGLESKYLKKR [SASS6]: the protein stability index was 4.62 ± 0.4 under setting [1] and 5.08 ± 0.19 under setting [2].
Taken in the same sequence, the figures for SNPGPVPGSSSGPVLGSSSGAGHG [SPAG8] were 5.051 ± 0.027 and 4.7 ± 0.35.
SNSCQDSTDTESNNEEQRSGLIYL [IKZF1]: the protein stability index is 4.67 ± 0.27 under setting [1] and 4.735 ± 0.023 under setting [2].
Taken in the same sequence, the figures for SPGGTLMDLSERQEVSSVRSLSST [DLC1] were 4.61 ± 0.24 and 4.85 ± 0.2.
Taken in the same sequence, the figures for SPIKPGDIKRGIPNYEFKLGKITF [UFD1] were 2.65 ± 0.34 and 2.52 ± 0.39.
In turn, SPLCLIPMVTSPREEQQLLASTSK [KCTD13] yielded a protein stability index under setting [1] of 4.1 ± 0.29 and a protein stability index under setting [2] of 4.37 ± 0.06.
Taken in the same sequence, the figures for SPLEEKHDQCKCENLIMFQNLANE [MATN2] were 4.365 ± 0.004 and 4.05 ± 0.69.
For SPMYFFLASLSFIDTVYSTAFAPK [OR4A15], the protein stability index is, setting by setting: under setting [1], 3.01 ± 0.35; under setting [2], 2.92 ± 0.54.
Taken in the same sequence, the figures for SPQEDGQIMFDVEMHTSRDHSSQS [BNIP3L] were 5.21 ± 0.2 and 5.21 ± 0.13.
In turn, SQDALRVVSTSGEQMKVYKCEHCR [IKZF1] had a protein stability index under setting [1] of 4.29 ± 0.33 and a protein stability index under setting [2] of 4.38 ± 0.3.
Taken in the same sequence, the figures for SQKLNFREHAKARVDHGAEIITQS [MAP2] were 3.98 ± 0.28 and 4.34 ± 0.38.
Turning to SRIKGWWVFHHYVSTFLSGVMLTW [TMEM120A], the protein stability index came out at 2.55 ± 0.24 under setting [1] and 2.37 ± 0.36 under setting [2].
On to SRISHLVLPVQPVSSIEEQGCLF [TOR1AIP2], for which the protein stability index was found to be 2.63 ± 0.44 (treatment: DMSO, c terminus: native) and 2.62 ± 0.22 (treatment: MLN4924 1 uM, 8 h, c terminus: native).
As to SRRFEAVGWWALLALVTLLSFATR [POMT2], the protein stability index is 2.29 ± 0.28 under setting [1] and 2.09 ± 0.33 under setting [2].
For SSGRKWGDDAPKEEVDTGAVNLIE [INTS4], in that order: 5.22 ± 0.6 and 5.21 ± 0.13.
For the sequence SSKFYDLFLMECEESPNGSEGACE [RHOBTB1], the protein stability index amounted to 3.72 ± 0.74 under setting [1] and 3.79 ± 0.1 under setting [2].
Taken in the same sequence, the figures for SSLFSVEANSSNSQKNEKALTNIQ [C8orf76] were 4.93 ± 0.2 and 4.73 ± 0.21.
Taken in the same sequence, the figures for SSNFHINVEESVDGQVVSSHKREI [KRT15] were 4.7 ± 0.18 and 4.68 ± 0.18.
For SSSGDLADLENEDIFPELDDILYH [DLC1], in that order: 4.77 ± 0.24 and 4.76 ± 0.2.
SSTKPPKSRRKAALSSPRSRKNAT [INTS3] gave a protein stability index under setting [1] of 4.89 ± 0.19 and a protein stability index under setting [2] of 5.04 ± 0.14.
Taken in the same sequence, the figures for SSTNFAMKRDVQEGQARCLAHLGR [C8orf76] were 3.66 ± 0.058 and 3.68 ± 0.28.
In the case of SSYFDSFQEAQIKRKARNEGRNRR [CDKL4], the protein stability index reads like this: under setting [1], 3.93 ± 0.76; under setting [2], 4.96 ± 0.35.
Take STQMFQTKRCFRLAPTFSNLLLQP [SMG5]: the protein stability index by setting is: under setting [1], 2.16 ± 0.4; under setting [2], 2.12 ± 0.2.
For STVTPVPGQEKGSALEGRADTTTG [EHMT1], in that order: 5.51 ± 0.32 and 5.53 ± 0.24.
As to SVDIVSSHWDLNHTHPSACQGQRL [PLD5], the protein stability index was 3.64 ± 0.16 under setting [1] and 3.82 ± 0.086 under setting [2].
For SVTGHTNIVEYLIQEQPGQEQVAG [FEM1A], in that order: 4.45 ± 0.073 and 4.57 ± 0.17.
For TAAGLMHTFNAHAATDITGFGILG [SEPHS2], in that order: 2.43 ± 0.51 and 2.44 ± 0.074.
Consider TAAMRCMCPLYDPNRQLWIELAPL [GAN], for which the protein stability index under setting [1] stood at 2.22 ± 0.51 and the protein stability index under setting [2] turned out to be 2.16 ± 0.55.
For TADHRIYSYVVSRPQPRGLLGWGY [FAF2], in that order: 2.16 ± 0.37 and 2.21 ± 0.22.
Turning to TCPQCHRSLILDDRGLRGFPKNRV [TRIM9], the protein stability index runs as follows: under setting [1], 2.74 ± 0.22; under setting [2], 3.16 ± 0.41.
Regarding TDAKKREALYAQDPSTGCYMYYFQ [KMT5A], the protein stability index by setting is: under setting [1], 2.48 ± 0.22; under setting [2], 2.68 ± 0.35.
For TETDSLVSAQRERPRRRDGPEHAT [DVL3], in that order: 5.24 ± 0.13 and 5.33 ± 0.3.
On to TEYQKQLLAAQVQLQCSPAELQAE [FBF1], for which the protein stability index runs as follows: under setting [1], 4.39 ± 0.31; under setting [2], 4.3 ± 0.2.
As for THLILHRDLKTQNILLDKHRMVVK [NEK8], the protein stability index reads like this: under setting [1], 2.78 ± 0.11; under setting [2], 2.83 ± 0.17.

For the origin of these results see the supplement of paper PMC10567573.
